Source: publication PMC8416091

How the values were obtained:
[1] = confocal imaging of Flag tag, transfected NIH-3T3 cells; conditions: glycan lost; control: wild-type Tlr2-Flag
[2] = confocal immunofluorescence of Tlr2, RAW264.7 cells; conditions: control: untreated RAW264.7 cells

B1: Tlr2: N414Q/N442Q (protein)
parent chain: MLRALWLFWILVAITVLFSKRCSAQESLSCDASGVCDGRSRSFTSIPSGLTAAMKSLDLSFNKITYIGHGDLRACANLQVLILKSSRINTIEGDAFYSLGSLEHLDLSDNHLSSLSSSWFGPLSSLKYLNLMGNPYQTLGVTSLFPNLTNLQTLRIGNVETFSEIRRIDFAGLTSLNELEIKALSLRNYQSQSLKSIRDIHHLTLHLSESAFLLEIFADILSSVRYLELRDTNLARFQFSPLPVDEVSSPMKKLAFRGSVLTDESFNELLKLLRYILELSEVEFDDCTLNGLGDFNPSESDVVSELGKVETVTIRRLHIPQFYLFYDLSTVYSLLEKVKRITVENSKVFLVPCSFSQHLKSLEFLDLSENLMVEEYLKNSACKGAWPSLQTLVLSQNHLRSMQKTGEILLTLKNLTSLDISRNTFHPMPDSCQWPEKMRFLNLSSTGIRVVKTCIPQTLEVLDVSNNNLDSFSLFLPRLQELYISRNKLKTLPDASLFPVLLVMKIRENAVSTFSKDQLGSFPKLETLEAGDNHFVCSCELLSFTMETPALAQILVDWPDSYLCDSPPRLHGHRLQDARPSVLECHQAALVSGVCCALLLLILLVGALCHHFHGLWYLRMMWAWLQAKRKPKKAPCRDVCYDAFVSYSEQDSHWVENLMVQQLENSDPPFKLCLHKRDFVPGKWIIDNIIDSIEKSHKTVFVLSENFVRSEWCKYELDFSHFRLFDENNDAAILVLLEPIERKAIPQRFCKLRKIMNTKTYLEWPLDEGQQEVFWVNLRTAIKS
localisation_or_trafficking [1]: decreases

B2: Tlr2: swainsonine (protein)
parent chain: B1 parent chain
localisation_or_trafficking ([2]; glycan changed form): changes

B3: Tlr2: kifunensine (protein)
parent chain: B1 parent chain
localisation_or_trafficking ([2]; glycan changed form): changes

B4: Tlr2: tunicamycin (protein)
parent chain: B1 parent chain
localisation_or_trafficking ([2]; glycan lost): decreases
